Target: T1, Bovine Serum Albumin (bovine, UniProt P02769 25-607)
T1 construct: also called BSA
Assay: ELISA, antigen coated on plate, phage-displayed Fab

T1 sequence (P02769 25-607 limits assumed): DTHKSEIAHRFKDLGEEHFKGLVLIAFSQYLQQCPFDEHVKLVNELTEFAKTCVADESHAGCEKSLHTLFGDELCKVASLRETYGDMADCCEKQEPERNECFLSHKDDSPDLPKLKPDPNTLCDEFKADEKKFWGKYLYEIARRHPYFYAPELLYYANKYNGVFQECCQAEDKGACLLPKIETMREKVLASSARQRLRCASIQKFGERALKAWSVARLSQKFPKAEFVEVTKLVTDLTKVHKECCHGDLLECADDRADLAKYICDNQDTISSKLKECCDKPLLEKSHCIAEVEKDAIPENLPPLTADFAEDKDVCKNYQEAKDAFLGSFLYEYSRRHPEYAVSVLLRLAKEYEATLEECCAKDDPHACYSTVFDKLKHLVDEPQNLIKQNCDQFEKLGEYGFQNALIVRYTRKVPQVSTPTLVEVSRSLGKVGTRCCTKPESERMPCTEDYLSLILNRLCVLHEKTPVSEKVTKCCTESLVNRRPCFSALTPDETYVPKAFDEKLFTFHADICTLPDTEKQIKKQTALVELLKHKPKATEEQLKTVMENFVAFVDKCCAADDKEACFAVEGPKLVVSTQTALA

B1: human Fab DDF-RuV2 (Fab, V domains shown)
VH: LESGGGVVQPGRSLRLSCAASGFTFSTYGMHWVRQAPGKGLEWVAVVSYDGTKEYYSDSVKGRFTISRDNSKKMVYLQMNSLRAEDTAVYYCAKEPPRRGFYWYFDYWGQGTLVTVSS
VL: ELTQSPSSLSASVGDRVTITCRASQDISNYLAWFQQRPGKVPNLLIYAASTLQSGVPSRFSGSGSGTEFTLTISSLQPEDGASYYCQKYDGAPWTFGQGTKVEIKR
- binding result: no binding

B2: human Fab DDF-RuV1 (Fab, V domains shown)
VH: LEQSGAEVKKPGENLKISCEASGYNFVNHWIGWVRQMPGRGLEWMGRIYPGDSETRFSPSFQGQVTISVDKTLSTASLQWNSLKTSDSATYYCVTLGRWSSWQGGALSWGQGTRVIVSS
VL: ELTQSPDSLAVSLGERATINCKSSQSILSTSKNKNYLAWYQQKPGQPPKLLIYWASTREDGVPDRFSGSGAGTDFSLTISSLQAEDVAVYYCQQRRSWPPTFGQGTKLEIKR
- binding result: no binding

— patent publication US20100143376A1 (RIBOVAX BIOTECHNOLOGIES S A, published 2010)
